Consider 3 molecules from publication PMC10397247.

What all share (test): two-hybrid library CCNG1;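 further: natural log of median RNA to DNA barcode read ratio; higher means stronger binding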
One assay has as its target T1, 4H3974-bN.
T1 chain: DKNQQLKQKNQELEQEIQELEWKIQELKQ

The next assay has as its target T2, 4H3175-bN.
T2 chain: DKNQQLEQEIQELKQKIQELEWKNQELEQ

For a further assay, the target named is T3, 4H3497-bN.
T3 chain: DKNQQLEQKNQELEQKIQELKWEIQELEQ

A further assay deals with T4, 4H2697-bN.
T4 chain: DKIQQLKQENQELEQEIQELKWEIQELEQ

A further assay has as its target T5, 4H717-bH.
T5 chain: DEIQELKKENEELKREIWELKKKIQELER

A further assay deals with T6, 4H3277-bN.
T6 chain: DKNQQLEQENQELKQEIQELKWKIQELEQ

In the next assay the target is T7, 4H3628-bN.
T7 chain: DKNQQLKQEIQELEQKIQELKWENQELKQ

The target of another assay is T8, 4H1899-bN.
T8 chain: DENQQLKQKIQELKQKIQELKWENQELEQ

The next assay concerns the target T9, 4H3858-bN.
T9 chain: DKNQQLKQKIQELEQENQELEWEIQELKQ

For a further assay, the target named is T10, 4H570-bN.
T10 chain: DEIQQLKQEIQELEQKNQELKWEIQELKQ

A further assay addresses T11, 4H3162-bN.
T11 chain: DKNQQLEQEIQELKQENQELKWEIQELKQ

In a further assay the target is T12, 4H3926-bN.
T12 chain: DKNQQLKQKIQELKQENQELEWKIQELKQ

The target in another assay is T13, 4H3817-bN.
T13 chain: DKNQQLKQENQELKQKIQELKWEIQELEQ

A further assay deals with T14, 4H3298-bN.
T14 chain: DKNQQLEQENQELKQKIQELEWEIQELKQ

In a further assay the target is T15, 4H1985-bN.
T15 chain: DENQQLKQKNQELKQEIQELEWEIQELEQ

The target in the next assay is T16, 4H3462-bN.
T16 chain: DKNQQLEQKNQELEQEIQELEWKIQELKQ

The next assay has as its target T17, 4H3613-bN.
T17 chain: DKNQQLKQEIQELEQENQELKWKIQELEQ

The target in a further assay is T18, 4H850-bN.
T18 chain: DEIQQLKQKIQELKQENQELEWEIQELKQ

For another assay, the target named is T19, 4H626-bN.
T19 chain: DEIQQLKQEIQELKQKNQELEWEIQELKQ

The next assay concerns the target T20, 4H953-bA.
T20 chain: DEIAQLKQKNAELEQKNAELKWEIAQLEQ

A further assay addresses T21, 4H906-bN.
T21 chain: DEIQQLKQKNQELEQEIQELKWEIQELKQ

For another assay, the target named is T22, 4H591-bN.
T22 chain: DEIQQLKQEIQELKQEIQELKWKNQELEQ

In a further assay the target is T23, 4H3631-bN.
T23 chain: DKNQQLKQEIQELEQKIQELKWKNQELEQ

The next assay has as its target T24, 4H3638-bN.
T24 chain: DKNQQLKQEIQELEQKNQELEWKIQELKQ

A further assay deals with T25, 4H3172-bN.
T25 chain: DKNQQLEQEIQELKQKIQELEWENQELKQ

In another assay the target is T26, 4H3129-bN.
T26 chain: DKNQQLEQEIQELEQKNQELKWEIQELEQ

The target in another assay is T27, 4H619-bN.
T27 chain: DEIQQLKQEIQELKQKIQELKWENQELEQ

The target in a further assay is T28, 4H3414-bN.
T28 chain: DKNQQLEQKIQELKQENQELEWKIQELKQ

The next assay has as its target T29, 4H584-bN.
T29 chain: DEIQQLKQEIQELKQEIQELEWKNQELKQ

For the next assay, the target named is T30, O8-bN.
T30 chain: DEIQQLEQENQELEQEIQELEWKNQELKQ

Consider DENQQLKQKIQELKQKIQELKWENQELEQ [4H1899-bN], for which the interaction score with 4H3974-bN was -0.336; with 4H3175-bN, -0.0673; with 4H3497-bN, -0.658; with 4H2697-bN it was -1.18; with 4H717-bH, -0.282; with 4H3277-bN it was -1.21. Further, the interaction score with 4H3628-bN is 0.469; in the assay with 4H1899-bN, -1.24; in the assay with 4H3858-bN it was -0.633; with 4H570-bN it was -1; in the assay with 4H3162-bN, -0.75; in the assay with 4H3926-bN, -0.429. The interaction score in the assay with 4H3817-bN was -0.969; in the assay with 4H3298-bN, -0.744; with 4H1985-bN, -0.785; with 4H3462-bN, -2.27; in the assay with 4H3613-bN, 0.0619; with 4H850-bN, -1.55. The interaction score in the assay with 4H626-bN is -0.642; in the assay with 4H953-bA it was -1.81; with 4H906-bN, -0.654; with 4H591-bN, -1.42.
As for DENQQLKQKNQELKQEIQELEWEIQELEQ [4H1985-bN], the interaction score is -1.17 with 4H3974-bN; -1.53 with 4H3631-bN; -2.05 with 4H3175-bN; -1.28 with 4H3497-bN; -1.75 with 4H3277-bN; -1.17 in the assay with 4H3628-bN. Also, the interaction score was -0.987 in the assay with 4H3858-bN; -1.42 in the assay with 4H570-bN; -1.17 in the assay with 4H3638-bN; -1.41 with 4H3162-bN; -1.25 with 4H3926-bN; -0.872 with 4H3817-bN. In addition, the interaction score was -0.626 in the assay with 4H3298-bN; -0.909 with 4H3172-bN; -2.06 with 4H3129-bN; -2.05 in the assay with 4H1985-bN; -1.4 in the assay with 4H3462-bN; -1.86 in the assay with 4H3613-bN. In addition, the interaction score in the assay with 4H850-bN was -1.6; in the assay with 4H626-bN it was -0.889; with 4H619-bN, -1.93; in the assay with 4H906-bN it was -1.03; with 4H3414-bN it was -1.17; with 4H584-bN it was -1.72. The interaction score with 4H591-bN was -0.871.
DKNQQLEQEIQELKQENQELKWEIQELKQ [4H3162-bN]: the interaction score in the assay with 4H3175-bN was -0.427; with 4H3497-bN it was -0.903; with 4H3277-bN, -0.514; with 4H3628-bN it was -0.668; with 4H3162-bN, 0.979; in the assay with 4H3926-bN it was 0.163. Also, the interaction score with 4H3298-bN is -0.102; with O8-bN, -3.16; in the assay with 4H3462-bN, 0.241; in the assay with 4H3613-bN it was -1.7; in the assay with 4H626-bN, -1.41; with 4H906-bN, -0.289. This molecule gave an interaction score with 4H591-bN of -1.33.
